Measured values reported in PMC8809517, “Cofactor-independent RNA editing by a synthetic S-type PPR protein”.
Positions count from the first letter of the chain named.

T1: GFP-9S library array, motif 4 ND N98D;D124T (synthetic construct, N98D;D124T)
T1 chain: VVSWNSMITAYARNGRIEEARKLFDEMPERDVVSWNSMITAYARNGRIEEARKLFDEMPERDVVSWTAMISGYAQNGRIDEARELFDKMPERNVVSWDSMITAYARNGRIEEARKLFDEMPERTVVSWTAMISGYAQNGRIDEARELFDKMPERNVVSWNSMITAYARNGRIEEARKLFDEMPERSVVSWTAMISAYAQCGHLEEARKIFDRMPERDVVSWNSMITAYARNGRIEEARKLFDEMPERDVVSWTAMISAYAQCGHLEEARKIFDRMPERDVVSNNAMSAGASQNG

T2: GFP-9S library array, motif 4 ND N98H (synthetic construct, N98H)
T2 chain: T1 chain with D98H, T124D

T3: GFP-9S library array, motif 4 ND N98E;D124I (synthetic construct, N98E;D124I)
T3 chain: T1 chain with D98E, T124I

T4: GFP-9S library array, motif 4 ND N98A;D124P (synthetic construct, N98A;D124P)
T4 chain: T1 chain with D98A, T124P

T5: GFP-9S library array, motif 4 ND D124S (synthetic construct, D124S)
T5 chain: T1 chain with D98N, T124S

B1: IR-rpoA-U (ssRNA)
RNA: AUUAUACGUGA
B2: Cy5-rpoA-G (ssRNA)
RNA: AUUAGACGUGA
B3: IR-rpoA-A (ssRNA)
RNA: AUUAAACGUGA
B4: Cy5-rpoA (ssRNA)
RNA: AUUACACGUGA

Key:
Assay in all cases: high-throughput RNA pulldown from lysate on Ni-NTA beads; HRP: 50 mM Tris pH 8, 150 mM NaCl, 1 mM beta-mercaptoethanol, 50 ug/ml BSA, 3 ug/ml yeast RNA, 0.5% heparin; ITC and FP: Tris pH 8, 200 mM KCl, 5% glycerol; MST: 50 mM Tris pH 8, 200 mM NaCl, 1 mM DTT, BSA, heparin, 0.05% Tween 20
Conditions in all cases: tags: N-terminal His-eGFP
[1] = molecular target: T1, GFP-9S library array, motif 4 ND …
[2] = molecular target: T2, GFP-9S library array, motif 4 ND N98H
[3] = molecular target: T3, GFP-9S library array, motif 4 ND …
[4] = molecular target: T4, GFP-9S library array, motif 4 ND …
[5] = molecular target: T5, GFP-9S library array, motif 4 ND D124S

Row | Binder | Kd ([1]; label: 5' IRDye 800CW) | Kd ([2]; label: 5' IRDye 800CW) | Kd ([3]; label: 5' IRDye 800CW) | Kd ([4]; label: 5' IRDye 800CW) | Kd ([5]; label: 5' IRDye 800CW) | Kd ([1]; label: 5' Cy5) | Kd ([2]; label: 5' Cy5) | Kd ([3]; label: 5' Cy5) | Kd ([4]; label: 5' Cy5) | Kd ([5]; label: 5' Cy5)
1 | B1 | 0.301 µM | 0.0657 µM | 4.07 µM | 0.32 µM | 0.00507 µM | – | – | – | – | –
2 | B2 | – | – | – | – | – | 0.106 µM | 0.0265 µM | 3.86 µM | 0.115 µM | 0.522 µM
3 | B3 | 0.32 µM | 0.465 µM | 5.14 µM | 0.218 µM | 0.162 µM | – | – | – | – | –
4 | B4 | – | – | – | – | – | 0.123 µM | 0.144 µM | 4.24 µM | 0.138 µM | 0.00201 µM
